± gives the standard error. Variants at the floor of the assay were thinned out.
B1: glmS ribozyme (parent)
chain: AUAAAAGCGCCAGAACUACAGAAAUGUAGUUGACGAGGAGGAGGUUUAUCGAAUUUUCGGCGGAUGCCUCCAAA

What was measured:
Conditions in all cases: with glucosamine-6-phosphate
[1] = variants of: B1; assay: self-cleavage kobs at 40 uM GlcN6P; higher = faster cleavage; RNA array
Summary of the method: (§1)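 Tracking of barcoded ribozyme variants used a hybridised Cy3 probe at 37 °C, after in situ transcription by E. coli RNA polymerase on sequenced MiSeq chips. The flowed solution held 40 μM to 10 mM glucosamine-6-phosphate in HEPES/KCl/Mg(OAc)2 buffer, and imaging ran over ~14 h. kobs was taken from exponential decay fits of normalised per-tile medians, and kcat and KM from weighted Michaelis–Menten fits.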

[2] = variants of: B1; assay: self-cleavage kobs at 160 uM GlcN6P; higher = faster cleavage; RNA array
Summary of the method: as §1

[3] = variants of: B1; assay: self-cleavage kobs at 640 uM GlcN6P; higher = faster cleavage; RNA array
Summary of the method: as §1

[4] = variants of: B1; assay: self-cleavage kobs at 2500 uM GlcN6P; higher = faster cleavage; RNA array
Summary of the method: as §1

[5] = variants of: B1; assay: self-cleavage kobs at 10000 uM GlcN6P; higher = faster cleavage; RNA array
Summary of the method: as §1

Variant	self-cleavage kobs at 40 uM GlcN6P [1] [s⁻¹]	self-cleavage kobs at 160 uM GlcN6P [2] [s⁻¹]	self-cleavage kobs at 640 uM GlcN6P [3] [s⁻¹]	self-cleavage kobs at 2500 uM GlcN6P [4] [s⁻¹]	self-cleavage kobs at 10000 uM GlcN6P [5] [s⁻¹]
AUAAAAGCGCGAGAACUACAGAAAUGUAGUUGACGAGGAGGAGGGUUAUCGAAUUUUCGGCGGAUGCCUCCAAA [C11G U45G]	< 1e-05	< 1e-05	< 1e-05	< 1e-05	< 1e-05
AUAAAAGCGCUUGAACUACAGAAAUGUAGUUGACGAGGAGGAGGUUUAUCGAAUUUUCGGCGGACGCGUCCAAA [C11U A12U U65C C68G]	< 1e-05	–	–	–	< 1e-05
AUAAAAGCGCUAGAACUACAGAAAUGUAGUUGACGAGGAGGCGGUUUAUCGAAUUUUCGGCGGAUGGCUCAAAA [C11U A42C C67G C71A]	< 1e-05	–	–	–	< 1e-05
AUAAAAGCGCGAGAACUACAGAAAUGUAGUUGACGAGGAGGAGUUUUAUCGAAUUUUCGGCGGAUGCCUCCAAA [C11G G44U]	< 1e-05	–	< 1e-05	–	< 1e-05
AUAAAAGCGCGAGAACUACAGAAAUGUAGUUGACGAGGAGGAGCUUUAUCGAAUUUUCGGCGGAUGCCUCCAAA [C11G G44C]	< 1e-05	< 1e-05	< 1e-05	< 1e-05	–
AUAAAAGCGCGAGAACUACAGAAAUGUAGUUGACGAGGAGGAGAUUUAUCGAAUUUUCGGCGGAUGCCUCCAAA [C11G G44A]	< 1e-05	< 1e-05	< 1e-05	–	< 1e-05
AUAAAAGCGCGAGAACUACAGAAAUGUAGUUGACGAGGAGGAGGUUUAUCGAAUUUACGGCGGAUGCCUCCAAA [C11G U57A]	< 1e-05	< 1e-05	< 1e-05	–	–
AUAAAAGCGCGAGAACUACAGAAAUGUAGUUGACGAGGAGGAGGUUUAUCGAAUUUUCAGCGGAUGCAUCCAAA [C11G G59A C68A]	< 1e-05	–	–	–	< 1e-05
AUAAAAGCGCGAGAACUACAGAAAUGUAGUUGACGAGGAGGAGGUUUAACGAAUUUUCGGCGGAUGCCUCCAAA [C11G U49A]	< 1e-05	< 1e-05	< 1e-05	< 1e-05	–
AUAAAAGCGCUAGAUCUACAGAAAUGUAGUUGACGAGGAGGAGGUUUAUCGAAUUUUCGGCGGAUGCCGCCAAA [C11U A15U U69G]	6.47e-05 ± 2.5e-05	–	–	–	–
AUAAAAGCGCGAGAACUACAGAAAUGUAGUAGACGAGGAGGAGGUUUAGCGAAUUUUCGGCGGAUGCCUCCAAA [C11G U31A U49G]	< 1e-05	–	–	–	–
AUAAAAGCGCGAGAACUACAGAAAUGUAGUAGACGAGGAGGAGGUUUAUGGAAUUUGCGGCGGAUGCCUCCAAA [C11G U31A C50G U57G]	0.000129 ± 3.6e-05	–	–	7.48e-05 ± 3e-05	5.06e-05 ± 1.6e-05
AUAAAAGCGCGAGAACUACAGAAAUGUAGUGGACGAGGAGGAGGUUUAUCGAAUUUUCGGCGGAUGCCUCCAAA [C11G U31G]	< 1e-05	–	< 1e-05	–	–
AUAAAAGCGCUAGCACUACAGAAAUGUAGUUGACGAGAAGGAGGUUUAUCGAAUUUUCGGGGGAUGCCUCCAAA [C11U A14C G38A C61G]	< 1e-05	–	–	–	–
AUAAAAGCGCUUGAACUACAGAAAUGUAGUUGACGAGGAGGAGGUUUAUCGAAUUUUCGGCGGUUGCCUCCAAA [C11U A12U A64U]	< 1e-05	–	–	–	–
AUAAAAGCGCGAGAACUACAGAAAUGUAGUAGUCGCGGAGGAGGUUUAUCGAAUUUUCGGCGGAUGCCUCCAAA [C11G U31A A33U A36C]	< 1e-05	–	–	< 1e-05	< 1e-05
AUAAAAGCGCUAGAACUACAGAAAUGUAGUUGGCGAGGAGGAGGUUUAUCGAAUUUUCGGCGGAUGCCUCCAAA [C11U A33G]	< 1e-05	< 1e-05	–	< 1e-05	< 1e-05
AUAAAAGCGCGAGAACUACAGAAAUGUAGCGGACGAGGAGGAGGUUUAUCGAAUUUUCGGCGGAUGCCUCCAAA [C11G U30C U31G]	< 1e-05	–	–	–	–
AUAAAAGCGCGAGAACUACAGAAAUGUAGUUGACGAGGAGGAGCUUUAUCGAAUUUUCGACGGAUGCCUCCAAA [C11G G44C G60A]	< 1e-05	< 1e-05	–	–	< 1e-05
AUAAAAGCGCUAGAACUACAGAAAUGUAGUUGACGAGGAGGAGGUUUCUCGAAUUUUCGGCGGAUGCCUCCAAA [C11U A48C]	< 1e-05	< 1e-05	< 1e-05	< 1e-05	< 1e-05
AUAAAAGCGCUAGGACUACAGAAAUGUAGUUGACGAGGAUGCGGUUUAUCGAAUUUUCGGCGGAUGCCUCCAAA [C11U A14G G40U A42C]	< 1e-05	–	–	–	< 1e-05
AUAAAAGCGCUUUAACUACAGAAAUGUAGUUGACGAGGAGGAGGUUUAUCGAAUUUUCGGCGGCUGCCUCCAAA [C11U A12U G13U A64C]	< 1e-05	–	–	–	< 1e-05
AUAAAAGCGCGAGAACUACAGAAAUGUAGUUGACGAGGAGGAGGUGUAUCGAAUUUUGGGCGGAUGUCUCCAAA [C11G U46G C58G C67U]	0.000158 ± 4.6e-05	–	0.000483 ± 0.00015	–	0.000304 ± 8.1e-05
AUAAAAGCGCUUGAACUACAGAAAUGUAGUUGACGAGGAGGAAGUUUAUCGAAUUUUCGGGGGAUGCCUCCAAA [C11U A12U G43A C61G]	< 1e-05	–	–	–	< 1e-05
AUAAAAGCGCUAGAACUACAGAAAUGUAGUUGACGAGGAGGCGGUUUAUCGAAUUUUCGGCGGAUGCCUCCAAA [C11U A42C]	< 1e-05	< 1e-05	< 1e-05	< 1e-05	< 1e-05
AUAAAAGCGCGAGAACUACAGAAAUGUAGUUGACGAGGAGGAGGUUUAUCGAAAUUUCGGCGGAUGCCUCCAAA [C11G U54A]	< 1e-05	–	–	–	–
AUAAAAGCGCUAGGGCUACAGAAAUGUAGUUGACGAGGAGGAGGUUUAUCGAAUUUUCGGCGGAUGCCUCCAAA [C11U A14G A15G]	0.000235 ± 5.3e-05	–	–	–	0.0112 ± 0.0025
AUAAAAGCGCGAGAACUACAGAAAUGUAGGUGACGCGGAGGAGGUUUAUCGAAUUUUCGGCGGUCGCCUCCAAA [C11G U30G A36C A64U U65C]	< 1e-05	< 1e-05	< 1e-05	< 1e-05	< 1e-05
